In the assay the test system is iron-deficiency-anemia-induced animals. It is filed as in vivo, Sprague-Dawley rats. The protocol: The composition containing porcine myoglobin prepared according to the present invention was administered to iron-deficiency-anemia-induced animals, whereby the effectiveness of the composition containing porcine myoglobin on alleviating anemia was evaluated. Specifically, after 2 weeks acclimation period, thirty 9-week old Sprague-Dawley rats (female) were divided into 3 groups of 10 rats per group, among which one group was fed with normal feed in an amount of 10% of body weight daily for […] (Group 1; control), and the remaining two groups were fed with iron-deficient feed in an amount of 10% of body weight daily for 6 weeks to induce iron-deficiency anemia (Group 2 and Group 3). After 6 weeks of feeding, it was confirmed that iron-deficiency anemia was induced in the individual rat belonging to Group 2 and Group 3. Then, one of the anemia-induced groups was orally administered once a day with saline alone (Group 2), and the other anemia-induced group was orally administered once a day with solution containing porcine myoglobin (0.1 mg Fe/500 μl solution, Group 3). The administration continued for 5 weeks. During 5 weeks of administration to Group 2 and Group 3, Group 1 was continuously fed with normal feed, and Group 2 and Group 3 were fed with iron-deficient feed. […] After 5 weeks of administration, blood was collected, and whether anemia was alleviated was evaluated.

[1] abbreviates: female Sprague-Dawley rats on iron-deficient feed, oral once a day, 0.1 mg Fe/500 μl solution, 5 weeks.

B1: porcine myoglobin: porcine myoglobin consisting of a globin of SEQ ID NO: 1 and a heme of formula 1, made with Escherichia coli (protein)
chain: MGLSDGEWQLVLNVWGKVEADVAGHGQEVLIRLFKGHPETLEKFDKFKHLKSEDEMKASEDLKKHGNTVLTALGGILKKKGHHEAELTPLAQSHATKHKIPVKYLEFISEAIIQVLQSKHPGDFGADAQGAMSKALELFRNDMAAKYKELGFQG
modifications: heme; Porcine myoglobin
For the molecule B1, the “Effectiveness at alleviating iron-deficiency anemia” value (conclusion from blood analysis after 5 weeks of administration) is reported as “effective at alleviating iron-deficiency anemia”. Also, under setting [1], the “Blood test: Hematocrit” value was found to be 39.8 ± 1.0%, the “Blood test: Hemoglobin content” value was determined as 13.7 ± 0.6 g/dL and the “Weight of rats on 5 weeks after administration” value came to 327.2 ± 3.1 g.

The record behind these values is patent US20230331816A1, “A METHOD FOR PREPARING PORCINE MYOGLOBIN USING ESCHERICHIA COLI” (iNtRON Biotechnology, Inc., priority 2020, published 2023).
